The text below walks through data of paper PMC8501228 (Cell Reports, 2021).

In this assay the target is SARS-CoV-2 Spike S1, 6x His-tagged recombinant protein (16-685 aa, YP_009724390.1) (SARS-CoV-2, UniProt P0DTC2 16-685). The assay is described as follows: ELISA. Background: An ELISA detects its analyte on a solid surface through an enzyme-linked reagent.

B1: galectin-8 (LGALS8) recombinant protein (1-317 aa, AAF19370.1) (natural protein)
chain: MMLSLNNLQNIIYNPVIPFVGTIPDQLDPGTLIVIRGHVPSDADRFQVDLQNGSSMKPRADVAFHFNPRFKRAGCIVCNTLINEKWGREEITYDTPFKREKSFEIVIMVLKDKFQVAVNGKHTLLYGHRIGPEKIDTLGIYGKVNIHSIGFSFSSDLQSTQASSLELTEISRENVPKSGTPQLRLPFAARLNTPMGPGRTVVVKGEVNANAKSFNVDLLAGKSKDIALHLNPRLNIKAFVRNSFLQESWGEEERNITSFPFSPGMYFEMIIYCDVREFKVAVNGVHSLEYKHRFKELSSIDTLEINGDIHLLEVRSW
As to B1, the binding result was “binds”.
